The target in test [1] is T1, Recombinant IL-17A/F heterodimer (human).
T1 construct: also called human recombinant IL-17A/F heterodimer; heterodimer A/F
The experiment in a line: SPR (Biacore 3000, 25°C), antibody captured by anti-mouse IgG Fc, cytokine titrated from 25 nM. On the procedure:
All experiments were performed at 25° C.
Double referenced background subtracted binding curves were analysed using the BIAevaluation software (version 3.2) following standard procedures. Kinetic parameters were determined from the fitting algorithm.
(In general: SPR reads the build-up and loss of mass on a sensor chip optically.)

The target of the next test is T2, IL-17 E (UniProt Q9H293 33-177, limits assumed).
T2 sequence (looked up): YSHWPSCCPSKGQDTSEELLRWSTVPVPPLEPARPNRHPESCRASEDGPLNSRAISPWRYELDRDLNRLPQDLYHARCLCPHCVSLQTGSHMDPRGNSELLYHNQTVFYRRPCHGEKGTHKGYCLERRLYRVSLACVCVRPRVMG
Kind of test: SPR (Biacore 3000), antibody captured by anti-human IgG Fc, cytokine in solution. Here is the method: (§1) BIA (Biamolecular Interaction Analysis) was performed using a Biacore 3000 (Biacore AB). All experiments were performed at 25° C. Affinipure Fc Fragment goat anti-human IgG, Fc fragment specific (Jackson ImmunoResearch) was immobilised on a CM5 Sensor Chip via amine coupling chemistry to a capture level of ≈6000 response units (RUs). HSS-EP buffer (10 mM HEPES pH 7.4, 0.15 M NaCl, 3 mM EDTA, 0.005% Surfactant P20, Biacore AB) was used as the running buffer with a flow rate of 10 μl/min. […] The surface was regenerated by a 30 μL injections of 40 mM HCl, followed by one 5 μL injection of 5 mM NaOH.
(§2) Background subtraction binding curves were double referenced and analysed using the BIAevaluation software (version 3.2) following standard procedures. Kinetic parameters were determined from the fitting algorithm.

In the next test the target is T3, IL-17 B (UniProt Q9UHF5 21-180, limits assumed).
T3 sequence (looked up): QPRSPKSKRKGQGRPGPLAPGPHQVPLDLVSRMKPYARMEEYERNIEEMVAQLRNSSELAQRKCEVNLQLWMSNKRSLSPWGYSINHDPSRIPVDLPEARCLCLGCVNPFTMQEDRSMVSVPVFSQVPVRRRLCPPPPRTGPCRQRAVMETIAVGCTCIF
The description is as above. On the procedure: as §1, §2

The target in a further test is T4, IL-17 C (UniProt Q9P0M4 19-197, limits assumed).
T4 sequence (looked up): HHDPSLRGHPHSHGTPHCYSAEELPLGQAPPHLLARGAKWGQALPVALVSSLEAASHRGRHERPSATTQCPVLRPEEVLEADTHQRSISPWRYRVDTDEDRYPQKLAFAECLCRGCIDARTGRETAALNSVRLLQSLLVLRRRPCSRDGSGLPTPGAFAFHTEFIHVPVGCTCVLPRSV
Described as above. Here is the method:
as §1, §2

In a further test the target is T5, IL-17 D (UniProt Q8TAD2 18-202, limits assumed).
T5 sequence (looked up): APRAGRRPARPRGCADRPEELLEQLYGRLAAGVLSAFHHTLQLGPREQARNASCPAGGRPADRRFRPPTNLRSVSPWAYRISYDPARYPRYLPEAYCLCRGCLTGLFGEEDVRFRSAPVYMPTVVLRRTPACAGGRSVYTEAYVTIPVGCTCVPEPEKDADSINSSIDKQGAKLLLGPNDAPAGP
The description is as above. On the procedure:
as §1, §2

T1 sequence (chain, as listed by the source limits assumed): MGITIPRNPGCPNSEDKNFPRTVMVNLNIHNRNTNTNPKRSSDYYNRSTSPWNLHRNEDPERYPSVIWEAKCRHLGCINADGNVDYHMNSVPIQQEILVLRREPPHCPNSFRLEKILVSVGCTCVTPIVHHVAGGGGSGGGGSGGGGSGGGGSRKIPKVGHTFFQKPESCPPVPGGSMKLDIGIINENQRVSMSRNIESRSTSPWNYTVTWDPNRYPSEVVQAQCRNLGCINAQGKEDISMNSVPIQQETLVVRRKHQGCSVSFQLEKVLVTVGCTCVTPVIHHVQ

B1: Antibody CA028-0496 (murine IgG1 constant regions) (antibody, V domains shown)
VH: EVQLVESGGGLVQPGGSLRLSCAASGFTFSDYNMAWVRQAPGKGLEWVATITYEGRNTYYRDSVKGRFTISRDNAKNSLYLQMNSLRAEDTAVYYCASPPQYYEGSIYRLWFAHWGQGTLVTVSS
VL: AIQLTQSPSSLSASVGDRVTITCRADESVTTLMHWYQQKPGKAPKLLIYLVSNRESGVPSRFSGSGSGTDFTLTISSLQPEDFATYYCQQTWSDPWTFGQGTKVEIKR
notes: not shown: murine IgG1 heavy chain constant region; murine light chain constant region
As for B1, the Kd in test [1] amounted to 0.116 nM.

B2: Antibody CA028-0496 (human IgG4 constant regions) (antibody, V domains shown)
VH: B1 VH
VL: B1 VL
notes: human gamma-4 constant region with the hinge mutation S241P and human C-kappa (Km3), made in CHO cells
For B2, the binding result with IL-17 E, in the test with IL-17 B, in the test with IL-17 C and with IL-17 D was “no binding (tested: doubling dilutions from 50 nM to sub nM)” each time.

The Kd is the free concentration of one partner at which half of the binding sites on the other are occupied at equilibrium, for simple one-to-one binding.

The values are drawn from patent US20100266609A1 (UCB, published 2010).
